The chains are these.
B1: SH3 domain-binding protein 4 (Homo sapiens), Q9P0V3 (parent)
chain: MAAQRIRAANSNGLPRCKSEGTLIDLSEGFSETSFNDIKVPSPSALLVDNPTPFGNAKEVIAIKDYCPTNFTTLKFSKGDHLYVLDTSGGEWWYAHNTTEMGYIPSSYVQPLNYRNSTLSDSGMIDNLPDSPDEVAKELELLGGWTDDKKVPGRMYSNNPFWNGVQTNPFLNGNVPVMPSLDELNPKSTVDLLLFDAGTSSFTESSSATTNSTGNIFDELPVTNGLHAEPPVRRDNPFFRSKRSYSLSELSVLQAKSDAPTSSSFFTGLKSPAPEQFQSREDFRTAWLNHRKLARSCHDLDLLGQSPGWGQTQAVETNIVCKLDSSGGAVQLPDTSISIHVPEGHVAPGETQQISMKALLDPPLELNSDRSCSISPVLEVKLSNLEVKTSIILEMKVSAEIKNDLFSKSTVGLQCLRSDSKEGPYVSVPLNCSCGDTVQAQLHNLEPCMYVAVVAHGPSILYPSTVWDFINKKVTVGLYGPKHIHPSFKTVVTIFGHDCAPKTLLVSEVTRQAPNPAPVALQLWGKHQFVLSRPQDLKVCMFSNMTNYEVKASEQAKVVRGFQLKLGKVSRLIFPITSQNPNELSDFTLRVQVKDDQEAILTQFCVQTPQPPPKSAIKPSGQRRFLKKNEVGKIILSPFATTTKYPTFQDRPVSSLKFGKLLKTVVRQNKNHYLLEYKKGDGIALLSEERVRLRGQLWTKEWYIGYYQGRVGLVHTKNVLVVGRARPSLCSGPELSTSVLLEQILRPCKFLTYIYASVRTLLMENISSWRSFADALGYVNLPLTFFCRAELDSEPERVASVLEKLKEDCNNTENKERKSFQKELVMALLKMDCQGLVVRLIQDFVLLTTAVEVAQRWRELAEKLAKVSKQQMDAYESPHRDRNGVVDSEAMWKPAYDFLLTWSHQIGDSYRDVIQELHLGLDKMKNPITKRWKHLTGTLILVNSLDVLRAAAFSPADQDDFVI
B2: SH3 domain-binding protein 4 (Homo sapiens), Q9P0V3 (parent)
chain: B1 chain
partner: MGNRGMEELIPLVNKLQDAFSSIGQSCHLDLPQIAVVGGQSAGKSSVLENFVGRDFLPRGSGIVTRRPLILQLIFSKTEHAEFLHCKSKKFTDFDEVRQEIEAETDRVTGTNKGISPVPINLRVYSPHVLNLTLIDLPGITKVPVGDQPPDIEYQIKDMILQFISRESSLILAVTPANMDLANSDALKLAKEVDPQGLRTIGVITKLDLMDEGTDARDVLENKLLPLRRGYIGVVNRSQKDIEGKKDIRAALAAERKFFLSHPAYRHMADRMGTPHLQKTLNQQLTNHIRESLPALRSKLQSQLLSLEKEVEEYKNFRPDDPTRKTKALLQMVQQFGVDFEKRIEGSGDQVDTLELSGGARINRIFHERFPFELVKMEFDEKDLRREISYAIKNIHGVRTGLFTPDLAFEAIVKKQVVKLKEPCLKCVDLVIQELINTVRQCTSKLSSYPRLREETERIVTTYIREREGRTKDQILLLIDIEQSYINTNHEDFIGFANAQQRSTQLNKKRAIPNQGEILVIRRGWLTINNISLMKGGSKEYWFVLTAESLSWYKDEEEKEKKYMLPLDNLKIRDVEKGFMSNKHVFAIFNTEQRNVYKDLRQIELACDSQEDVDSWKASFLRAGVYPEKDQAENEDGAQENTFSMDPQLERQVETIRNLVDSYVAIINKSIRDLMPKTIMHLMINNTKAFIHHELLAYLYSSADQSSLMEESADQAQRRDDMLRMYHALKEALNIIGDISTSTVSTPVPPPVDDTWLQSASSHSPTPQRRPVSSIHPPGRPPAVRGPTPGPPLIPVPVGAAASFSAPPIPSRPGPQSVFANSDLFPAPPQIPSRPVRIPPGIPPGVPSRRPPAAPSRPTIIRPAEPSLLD

One assay covers variants of B1. The following applies: with tfr1_human TFRC.
As for W92A, the “effect of a mutation on the interaction” value was “disrupting interaction”.

A further assay covers variants of B2. As to conditions: with dyn2_human DNM2, P50570.
With W92A, the “effect of a mutation on the interaction” value was “disrupting interaction”.

Values taken from IntAct's records for PubMed 16325581.
